Legend:
[1] = tested on: SARS-CoV-2 gRNA and sgRNAs; assay type: binding; settings: for target (unweighted spectral count of the protein in the RNP capture experiment): LC-MS/MS label-free quantification, probe pool not given; for back-ground (unweighted spectral count of the protein in the control experiment): protein background of the control (e.g. no-probe) experiment; for target (unweighted spectral count in RNP capture): Probe II capture, LC-MS/MS LFQ; for background (unweighted spectral count in control): no-probe control pull-down, used as background for Probe II
HCoV-OC43 gRNA and sgRNA = assay type: binding; settings: for target (unweighted spectral count, OC43 Probe II capture): 36 hpi, type n_36_v, FDR<10%
[2] = tested against no-probe control

| Molecule | target (unweighted spectral count of the protein in the RNP capture experiment) [1] | back-ground (unweighted spectral count of the protein in the control experiment) [1] | target (unweighted spectral count in RNP capture) [1] | background (unweighted spectral count in control) [1] | other results |
| --- | --- | --- | --- | --- | --- |
| ACLY (protein, UniProt P53396 1-1101, looked up) ATP-citrate synthase: MSAKAISEQTGKELLYKFICTTSAIQNRFKYARVTPDTDWARLLQDHPWLLSQNLVVKPDQLIKRRGKLGLVGVNLTLDGVKSWLKPRLGQEATVGKATGFLKNFLIEPFVPHSQAEEFYVCIYATREGDYVLFHHEGGVDVGDVDAKAQKLLVGVDEKLNPEDIKKHLLVHAPEDKKEILASFISGLFNFYEDLYFTYLEINPLVVTKDGVYVLDLAAKVDATADYICKVKWGDIEFPPPFGREAYPEEAYIADLDAKSGASLKLTLLNPKGRIWTMVAGGGASVVYSDTICDLGGVNELANYGEYSGAPSEQQTYDYAKTILSLMTREKHPDGKILIIGGSIANFTNVAATFKGIVRAIRDYQGPLKEHEVTIFVRRGGPNYQEGLRVMGEVGKTTGIPIHVFGTETHMTAIVGMALGHRPIPNQPPTAAHTANFLLNASGSTSTPAPSRTASFSESRADEVAPAKKAKPAMPQDSVPSPRSLQGKSTTLFSRHTKAIVWGMQTRAVQGMLDFDYVCSRDEPSVAAMVYPFTGDHKQKFYWGHKEILIPVFKNMADAMRKHPEVDVLINFASLRSAYDSTMETMNYAQIRTIAIIAEGIPEALTRKLIKKADQKGVTIIGPATVGGIKPGCFKIGNTGGMLDNILASKLYRPGSVAYVSRSGGMSNELNNIISRTTDGVYEGVAIGGDRYPGSTFMDHVLRYQDTPGVKMIVVLGEIGGTEEYKICRGIKEGRLTKPIVCWCIGTCATMFSSEVQFGHAGACANQASETAVAKNQALKEAGVFVPRSFDELGEIIQSVYEDLVANGVIVPAQEVPPPTVPMDYSWARELGLIRKPASFMTSICDERGQELIYAGMPITEVFKEEMGIGGVLGLLWFQKRLPKYSCQFIEMCLMVTADHGPAVSGAHNTIICARAGKDLVSSLTSGLLTIGDRFGGALDAAAKMFSKAFDSGIIPMEFVNKMKKEGKLIMGIGHRVKSINNPDMRVQILKDYVRQHFPATPLLDYALEVEKITTSKKPNLILNVDGLIGVAFVDMLRNCGSFTREEADEYIDIGALNGIFVLGRSMGFIGHYLDQKRLKQGLYRHPWDDISYVLPEHMSM | 6 | 1 | – | – | – |
| CAPRIN1 (protein, UniProt Q14444 2-709, looked up) Caprin-1: PSATSHSGSGSKSSGPPPPSGSSGSEAAAGAGAAAPASQHPATGTGAVQTEAMKQILGVIDKKLRNLEKKKGKLDDYQERMNKGERLNQDQLDAVSKYQEVTNNLEFAKELQRSFMALSQDIQKTIKKTARREQLMREEAEQKRLKTVLELQYVLDKLGDDEVRTDLKQGLNGVPILSEEELSLLDEFYKLVDPERDMSLRLNEQYEHASIHLWDLLEGKEKPVCGTTYKVLKEIVERVFQSNYFDSTHNHQNGLCEEEEAASAPAVEDQVPEAEPEPAEEYTEQSEVESTEYVNRQFMAETQFTSGEKEQVDEWTVETVEVVNSLQQQPQAASPSVPEPHSLTPVAQADPLVRRQRVQDLMAQMQGPYNFIQDSMLDFENQTLDPAIVSAQPMNPTQNMDMPQLVCPPVHSESRLAQPNQVPVQPEATQVPLVSSTSEGYTASQPLYQPSHATEQRPQKEPIDQIQATISLNTDQTTASSSLPAASQPQVFQAGTSKPLHSSGINVNAAPFQSMQTVFNMNAPVPPVNEPETLKQQNQYQASYNQSFSSQPHQVEQTELQQEQLQTVVGTYHGSPDQSHQVTGNHQQPPQQNTGFPRSNQPYYNSRGVSRGGSRGARGLMNGYRGPANGFRGGYDGYRPSFSNTPNSGYTQSQFSAPRDYSGYQRDGYQQNFKRGSGQSGPRGAPRGRGGPPRPNRGMPQMNTQQVN | – | – | 10 | 1 | – |
| CRIP2 (protein, UniProt P52943 1-208, looked up) Cysteine-rich protein 2: MASKCPKCDKTVYFAEKVSSLGKDWHKFCLKCERCSKTLTPGGHAEHDGKPFCHKPCYATLFGPKGVNIGGAGSYIYEKPLAEGPQVTGPIEVPAARAEERKASGPPKGPSRASSVTTFTGEPNTCPRCSKKVYFAEKVTSLGKDWHRPCLRCERCGKTLTPGGHAEHDGQPYCHKPCYGILFGPKGVNTGAVGSYIYDRDPEGKVQP | 6 | 1 | – | – | – |
| HNRNPA3 (protein, UniProt P51991 1-378, looked up) Heterogeneous nuclear …: MEVKPPPGRPQPDSGRRRRRRGEEGHDPKEPEQLRKLFIGGLSFETTDDSLREHFEKWGTLTDCVVMRDPQTKRSRGFGFVTYSCVEEVDAAMCARPHKVDGRVVEPKRAVSREDSVKPGAHLTVKKIFVGGIKEDTEEYNLRDYFEKYGKIETIEVMEDRQSGKKRGFAFVTFDDHDTVDKIVVQKYHTINGHNCEVKKALSKQEMQSAGSQRGRGGGSGNFMGRGGNFGGGGGNFGRGGNFGGRGGYGGGGGGSRGSYGGGDGGYNGFGGDGGNYGGGPGYSSRGGYGGGGPGYGNQGGGYGGGGGYDGYNEGGNFGGGNYGGGGNYNDFGNYSGQQQSNYGPMKGGSFGGRSSGSPYGGGYGSGGGSGGYGSRRF | – | – | 51 | 1 | target (unweighted spectral count, OC43 Probe II capture) (HCoV-OC43 gRNA and sgRNA; [2]): 25; target (unweighted spectral count) (HCoV-OC43 gRNA and sgRNA; OC43 Probe II, 24 hpi (type n_24_v), infected cells, tested against no-probe control): 22 |
| SPATS2 (protein, UniProt Q86XZ4 1-545, looked up) Spermatogenesis-associated …: MSRKQNQKDSSGFIFDLQSNTVLAQGGAFENMKEKINAVRAIVPNKSNNEIILVLQHFDNCVDKTVQAFMEGSASEVLKEWTVTGKKKNKKKKNKPKPAAEPSNGIPDSSKSVSIQEEQSAPSSEKGGMNGYHVNGAINDTESVDSLSEGLETLSIDARELEDPESAMLDTLDRTGSMLQNGVSDFETKSLTMHSIHNSQQPRNAAKSLSRPTTETQFSNMGMEDVPLATSKKLSSNIEKSVKDLQRCTVSLARYRVVVKEEMDASIKKMKQAFAELESCLMDREVALLAEMDKVKAEAMEILLSRQKKAELLKKMTHVAVQMSEQQLVELRADIKHFVSERKYDEDLGRVARFTCDVETLKKSIDSFGQVSHPKNSYSTRSRCSSVTSVSLSSPSDASAASSSTCASPPSLTSANKKNFAPGETPAAIANSSGQPYQPLREVLPGNRRGGQGYRPQGQKSNDPMNQGRHDSMGRYRNSSWYSSGSRYQSAPSQAPGNTIERGQTHSAGTNGTGVSMEPSPPTPSFKKGLPQRKPRTSQTEAVNS | 5 | 1 | – | – | – |
| NUFIP2 (protein, UniProt Q7Z417 1-695, looked up) FMR1-interacting protein …: MEEKPGQPQPQHHHSHHHPHHHPQQQQQQPHHHHHYYFYNHSHNHHHHHHHQQPHQYLQHGAEGSPKAQPKPLKHEQKHTLQQHQETPKKKTGYGELNGNAGEREISLKNLSSDEATNPISRVLNGNQQVVDTSLKQTVKANTFGKAGIKTKNFIQKNSMDKKNGKSYENKSGENQSVDKSDTIPIPNGVVTNNSGYITNGYMGKGADNDGSGSESGYTTPKKRKARRNSAKGCENLNIVQDKIMQQETSVPTLKQGLETFKPDYSEQKGNRVDGSKPIWKYETGPGGTSRGKPAVGDMLRKSSDSKPGVSSKKFDDRPKGKHASAVASKEDSWTLFKPPPVFPVDNSSAKIVPKISYASKVKENLNKTIQNSSVSPTSSSSSSSSTGETQTQSSSRLSQVPMSALKSVTSANFSNGPVLAGTDGNVYPPGGQPLLTTAANTLTPISSGTDSVLQDMSLTSAAVEQIKTSLFIYPSNMQTMLLSTAQVDLPSQTDQQNLGDIFQNQWGLSFINEPSAGPETVTGKSSEHKVMEVTFQGEYPATLVSQGAEIIPSGTEHPVFPKAYELEKRTSPQVLGSILKSGTTSESGALSLEPSHIGDLQKADTSSQGALVFLSKDYEIESQNPLASPTNTLLGSAKEQRYQRGLERNDSWGSFDLRAAIVYHTKEMESIWNLQKQDPKRIITYNEAMDSPDQ | – | – | 10 | 1 | – |
| ATXN2 (protein, UniProt Q99700 1-1313, looked up) Ataxin-2: MRSAAAAPRSPAVATESRRFAAARWPGWRSLQRPARRSGRGGGGAAPGPYPSAAPPPPGPGPPPSRQSSPPSASDCFGSNGNGGGAFRPGSRRLLGLGGPPRPFVVLLLPLASPGAPPAAPTRASPLGARASPPRSGVSLARPAPGCPRPACEPVYGPLTMSLKPQQQQQQQQQQQQQQQQQQQQQQQPPPAAANVRKPGGSGLLASPAAAPSPSSSSVSSSSATAPSSVVAATSGGGRPGLGRGRNSNKGLPQSTISFDGIYANMRMVHILTSVVGSKCEVQVKNGGIYEGVFKTYSPKCDLVLDAAHEKSTESSSGPKREEIMESILFKCSDFVVVQFKDMDSSYAKRDAFTDSAISAKVNGEHKEKDLEPWDAGELTANEELEALENDVSNGWDPNDMFRYNEENYGVVSTYDSSLSSYTVPLERDNSEEFLKREARANQLAEEIESSAQYKARVALENDDRSEEEKYTAVQRNSSEREGHSINTRENKYIPPGQRNREVISWGSGRQNSPRMGQPGSGSMPSRSTSHTSDFNPNSGSDQRVVNGGVPWPSPCPSPSSRPPSRYQSGPNSLPPRAATPTRPPSRPPSRPSRPPSHPSAHGSPAPVSTMPKRMSSEGPPRMSPKAQRHPRNHRVSAGRGSISSGLEFVSHNPPSEAATPPVARTSPSGGTWSSVVSGVPRLSPKTHRPRSPRQNSIGNTPSGPVLASPQAGIIPTEAVAMPIPAASPTPASPASNRAVTPSSEAKDSRLQDQRQNSPAGNKENIKPNETSPSFSKAENKGISPVVSEHRKQIDDLKKFKNDFRLQPSSTSESMDQLLNKNREGEKSRDLIKDKIEPSAKDSFIENSSSNCTSGSSKPNSPSISPSILSNTEHKRGPEVTSQGVQTSSPACKQEKDDKEEKKDAAEQVRKSTLNPNAKEFNPRSFSQPKPSTTPTSPRPQAQPSPSMVGHQQPTPVYTQPVCFAPNMMYPVPVSPGVQPLYPIPMTPMPVNQAKTYRAVPNMPQQRQDQHHQSAMMHPASAAGPPIAATPPAYSTQYVAYSPQQFPNQPLVQHVPHYQSQHPHVYSPVIQGNARMMAPPTHAQPGLVSSSATQYGAHEQTHAMYACPKLPYNKETSPSFYFAISTGSLAQQYAHPNATLHPHTPHPQPSATPTGQQQSQHGGSHPAPSPVQHHQHQAAQALHLASPQQQSAIYHAGLAPTPPSMTPASNTQSPQNSFPAAQQTVFTIHPSHVQPAYTNPPHMAHVPQAHVQSGMVPSHPTAHAPMMLMTTQPPGGPQAALAQSALQPIPVSTTAHFPYMTHPSVQAHHQQQL | – | – | 22 | 1 | target (unweighted spectral count, OC43 Probe II capture) (HCoV-OC43 gRNA and sgRNA; [2]): 4; target (unweighted spectral count, OC43 Probe II) (HCoV-OC43 gRNA and sgRNA; type n_48_v, 48 hpi, OC43 Probe II capture on infected cells): 6; background (unweighted spectral count, no-probe control) (HCoV-OC43 gRNA and sgRNA; type n_48_v, 48 hpi, no-probe control on infected cells): 1 |

— patent publication US20230407373A1 (priority 2020, published 2023)
